T1: RESC1;RESC2 (Trypanosoma brucei;Trypanosoma brucei, UniProt Q57XL7;Q586X1 22-473;33-492, |)
T1 sequence 1: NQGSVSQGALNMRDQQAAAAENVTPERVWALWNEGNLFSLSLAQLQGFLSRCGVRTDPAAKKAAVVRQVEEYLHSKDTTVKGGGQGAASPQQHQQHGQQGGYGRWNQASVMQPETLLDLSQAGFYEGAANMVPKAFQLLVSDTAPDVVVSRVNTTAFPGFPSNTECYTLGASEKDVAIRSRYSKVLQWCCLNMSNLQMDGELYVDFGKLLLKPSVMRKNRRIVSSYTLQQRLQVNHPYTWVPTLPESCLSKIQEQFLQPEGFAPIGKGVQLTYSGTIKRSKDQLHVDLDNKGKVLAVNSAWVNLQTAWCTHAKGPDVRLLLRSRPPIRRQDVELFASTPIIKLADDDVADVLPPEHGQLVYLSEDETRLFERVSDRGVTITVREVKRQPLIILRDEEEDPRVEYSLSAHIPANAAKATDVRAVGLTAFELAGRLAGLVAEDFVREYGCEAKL
T1 sequence 2: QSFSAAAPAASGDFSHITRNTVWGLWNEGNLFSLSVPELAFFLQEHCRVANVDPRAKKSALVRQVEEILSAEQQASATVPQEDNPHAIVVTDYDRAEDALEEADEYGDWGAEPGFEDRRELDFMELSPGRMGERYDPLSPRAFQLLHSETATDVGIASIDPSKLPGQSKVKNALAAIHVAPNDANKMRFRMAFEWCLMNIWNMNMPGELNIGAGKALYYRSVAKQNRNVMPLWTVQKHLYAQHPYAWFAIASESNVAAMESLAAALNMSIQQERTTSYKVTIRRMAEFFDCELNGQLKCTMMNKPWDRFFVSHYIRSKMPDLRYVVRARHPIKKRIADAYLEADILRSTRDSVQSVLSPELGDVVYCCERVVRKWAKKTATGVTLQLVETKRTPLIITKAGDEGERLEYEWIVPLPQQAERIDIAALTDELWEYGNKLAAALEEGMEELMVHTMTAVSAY

B1: gRNA gND7(506), 5'-triphosphate (ssRNA)
RNA: GGGAUAUAAAUACGAUGUAAAUAACCUGUAGUAUAGUUAGUGUAUAUAGUGAAA
modifications: 5'-triphosphate
B2: gRNA gND7(506), 5'-hydroxyl (ssRNA)
RNA: B1 RNA
modifications: 5'-OH, no triphosphate

Key:
[1] = biological target: T1, RESC1;RESC2; test: analytical SEC; SEC: 20 mM HEPES pH 7.5, 2 mM MgCl2, 1 mM DTT, variable NaCl; purification at 4 C; exact binding assay salt and temperature not in material; details: protein: recombinant;recombinant; tags: N-terminal 6xHis-3C (cleaved when needed);none; copies: 1;1
[2] = biological target: RESC1;RESC2 K311S/R402D (Trypanosoma brucei;Trypanosoma brucei, UniProt Q57XL7;Q586X1 22-473;33-492, |K311S;R402D); test: as above; details: protein: recombinant;recombinant; tags: N-terminal 6xHis-3C (cleaved when needed);none; copies: 1;1

Row | Binder | binding result [1] | binding result [2]
1 | B1 | binds | no binding
2 | B2 | no binding | 
